According to patent US20170183403A1 (UNIVERSIT T Z RICH, published 2017):

Key:
Test in all cases: peptide microarray (RepliTope), 15-mers
Reference peptide no. 1 = target: T1, Reference peptide no. 1
T1 construct: hIL-2 15-mer, first library, on microarray; also called peptide 1
T1 peptide: APTSSSTKKTQLQLE
Procedure: (§1) Additional incubations are with unrelated antibodies from the same isotype (mouse control IgG2a/lambda and mouse control IgG2a/kappa), and secondary antibodies (anti-mouse IgG (Thermo 84545, label DL650) or anti-mouse IgG (JIR 115-175-072, Label Cy5)) to assess unspecific binding due to the detection antibody. The experiments are performed essentially as described in Maksimov P, et al. 2012, PLoS One 7:e34212. doi:10.1371/journal. pone. 0034212.
(§2) The determination of peptide-antibody binding was performed by RepliTope-analysis where the peptide microarray (triplicate) was incubated with the primary antibody followed by a fluorescently labelled secondary antibody directed against the Fc-part of the primary one. All steps were performed on a TECAN microarray processing station enabling highly reliable and reproducible washing and incubation steps. After performing the incubation steps and subsequent to the final washing steps (to remove the unbound secondary antibodies) the microarrays were dried using a nitrogen stream and scanned in a high resolution microarray scanning system with appropriate wavelength settings. Control incubations were performed with an unrelated antibody having the same isotype to exclude false positive signals.
(§3) The resulting images were analyzed und quantified using spot-recognition software GenePix (Molecular Devices). For each spot, the mean signal intensity was extracted (between 0 and 65535 arbitrary units). For further data evaluation, the MMC2 values were determined. The MMC2 equals the mean value of all three instances on the microarray. Except the coefficient of variation (CV)—standard-deviation divided by the mean value—is larger 0.5, in this case the mean of the two closest values (MC2) is assigned to MMC2.

Reference peptide no. 2 = target: T2, Reference peptide no. 2
T2 construct: hIL-2 15-mer, first library, on microarray; also called peptide 2
T2 peptide: SSSTKKTQLQLEHLL
Procedure: as §1, §2, §3

Reference peptide no. 4 = target: T3, Reference peptide no. 4
T3 construct: hIL-2 15-mer, first library, on microarray; also called peptide 4
T3 peptide: TQLQLEHLLLDLQMI
Procedure: as §1, §2, §3

Reference peptide no. 5 = target: T4, Reference peptide no. 5
T4 construct: hIL-2 15-mer, first library, on microarray; also called peptide 5
T4 peptide: QLEHLLLDLQMILNG
Procedure: as §1, §2, §3

Reference peptide no. 7 = target: T5, Reference peptide no. 7
T5 construct: hIL-2 15-mer, first library, on microarray; also called peptide 7
T5 peptide: LDLQMILNGINNYKN
Procedure: as §1, §2, §3

Reference peptide no. 9 = target: T6, Reference peptide no. 9
T6 construct: hIL-2 15-mer, first library, on microarray; also called peptide 9
T6 peptide: LNGINNYKNPKLTRM
Procedure: as §1, §2, §3

Reference peptide no. 14 = target: T7, Reference peptide no. 14
T7 construct: hIL-2 15-mer, first library, on microarray; also called peptide 14
T7 peptide: LTFKFYMPKKATELK
Procedure: as §1, §2, §3

Reference peptide no. 15 = target: T8, Reference peptide no. 15
T8 construct: hIL-2 15-mer, first library, on microarray; also called peptide 15
T8 peptide: KFYMPKKATELKHLQ
Procedure: as §1, §2, §3

Reference peptide no. 16 = target: T9, Reference peptide no. 16
T9 construct: hIL-2 15-mer, first library, parental Cys replaced by Ser, on microarray; also called peptide 16
T9 peptide: MPKKATELKHLQSLE
Procedure: as §1, §2, §3

Reference peptide no. 17 = target: T10, Reference peptide no. 17
T10 construct: hIL-2 15-mer, first library, parental Cys replaced by Ser, on microarray; also called peptide 17
T10 peptide: KATELKHLQSLEEEL
Procedure: as §1, §2, §3

Reference peptide no. 18 = target: T11, Reference peptide no. 18
T11 construct: hIL-2 15-mer, first library, parental Cys replaced by Ser, on microarray; also called peptide 18
T11 peptide: ELKHLQSLEEELKPL
Procedure: as §1, §2, §3

Reference peptide no. 20 = target: T12, Reference peptide no. 20
T12 construct: hIL-2 15-mer, first library, parental Cys replaced by Ser, on microarray; also called peptide 20
T12 peptide: SLEEELKPLEEVLNL
Procedure: as §1, §2, §3

Reference peptide no. 21 = target: T13, Reference peptide no. 21
T13 construct: hIL-2 15-mer, first library, on microarray; also called peptide 21
T13 peptide: EELKPLEEVLNLAQS
Procedure: as §1, §2, §3

Reference peptide no. 25 = target: T14, Reference peptide no. 25
T14 construct: hIL-2 15-mer, first library, on microarray; also called peptide 25
T14 peptide: AQSKNFHLRPRDLIS
Procedure: as §1, §2, §3

Reference peptide no. 28 = target: T15, Reference peptide no. 28
T15 construct: hIL-2 15-mer, first library, on microarray; also called peptide 28
T15 peptide: PRDLISNINVIVLEL
Procedure: as §1, §2, §3

Reference peptide no. 29 = target: T16, Reference peptide no. 29
T16 construct: hIL-2 15-mer, first library, on microarray; also called peptide 29
T16 peptide: LISNINVIVLELKGS
Procedure: as §1, §2, §3

Reference peptide no. 31 = target: T17, Reference peptide no. 31
T17 construct: hIL-2 15-mer, first library, parental Cys replaced by Ser, on microarray; also called peptide 31
T17 peptide: VIVLELKGSETTFMS
Procedure: as §1, §2, §3

Reference peptide no. 36 = target: T18, Reference peptide no. 36
T18 construct: hIL-2 15-mer, first library, on microarray; also called peptide 36
T18 peptide: EYADETATIVEFLNR
Procedure: as §1, §2, §3

Reference peptide no. 38 = target: T19, Reference peptide no. 38
T19 construct: hIL-2 15-mer, first library, parental Cys replaced by Ser, on microarray; also called peptide 38
T19 peptide: ATIVEFLNRWITFSQ
Procedure: as §1, §2, §3

Reference peptide no. 39 = target: T20, Reference peptide no. 39
T20 construct: hIL-2 15-mer, first library, parental Cys replaced by Ser, on microarray; also called peptide 39
T20 peptide: VEFLNRWITFSQSII
Procedure: as §1, §2, §3

Reference peptide no. 42 = target: T21, Reference peptide no. 42
T21 construct: second library: peptide 10 with F(62) to Ala; also called peptide 42
T21 peptide: INNYKNPKLTRMLTA
Procedure: as §1, §2, §3

Reference peptide no. 44 = target: T22, Reference peptide no. 44
T22 construct: second library: peptide 12 with F(62) to Ala; also called peptide 44
T22 peptide: PKLTRMLTAKFYMPK
Procedure: as §1, §2, §3

Reference peptide no. 56 = target: T23, Reference peptide no. 56
T23 construct: second library: peptide 20 with L(92) to Ala; parental Cys replaced by Ser; also called peptide 56
T23 peptide: SLEEELKPLEEVLNA
Procedure: as §1, §2, §3

Reference peptide no. 58 = target: T24, Reference peptide no. 58
T24 construct: second library: peptide 22 with L(92) to Ala; also called peptide 58
T24 peptide: KPLEEVLNAAQSKNF
Procedure: as §1, §2, §3

Measured: binding result

B1: NARA1 (antibody, mouse IgG2a, kappa, V domains shown)
VH: QVQLQQSGAELVRPGTSVKVSCKASGYAFTNYLIEWVKQRPGQGLEWIGVINPGSGGTNYNEKFKGKATLTADKSSSTAYMQLSSLTSDDSAVYFCARWRGDGYYAYFDVWGAGTTVTVSS
VL: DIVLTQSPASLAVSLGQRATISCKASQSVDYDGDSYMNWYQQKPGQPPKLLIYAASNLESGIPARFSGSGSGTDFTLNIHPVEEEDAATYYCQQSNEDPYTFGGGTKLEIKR
notes: Mouse monoclonal from hybridoma; Isotype controls used were mouse IgG2a; also called anti-IL2 (NARA1) antibody; monoclonal antibody NARA1
no binding: Reference peptide no. 1 | Reference peptide no. 2 | Reference peptide no. 4 | Reference peptide no. 5 | Reference peptide no. 7 | Reference peptide no. 9 | Reference peptide no. 14 | Reference peptide no. 15 | Reference peptide no. 16 | Reference peptide no. 17 | Reference peptide no. 18 | Reference peptide no. 20 | Reference peptide no. 21 | Reference peptide no. 25 | Reference peptide no. 28 | Reference peptide no. 29 | Reference peptide no. 31 | Reference peptide no. 36 | Reference peptide no. 38 | Reference peptide no. 39 | Reference peptide no. 42 | Reference peptide no. 44 | Reference peptide no. 56 | Reference peptide no. 58
